Positions of bridges follow the written chain, without caps; N, C: chain ends. Non-standard residues stand in square brackets, D forms with d. Groups on a side chain read outwards from the residue. Primed or numbered codes have the meaning given here. *: point of attachment. X2 = (2-(2-(16-(tetrazol-5-yl)hexadecanoylamino)ethoxy)ethoxy)acetyl, O=C(CCCCCCCCCCCCCCCc1nn[nH]n1)NCCOCCOCC(=O)*; X5 = NH(2-(2-(2-(17-carboxyheptadecanoylamino)ethoxy)ethoxy)ethyl), O=C(O)CCCCCCCCCCCCCCCCC(=O)NCCOCCOCCN*; X6 = (2-(2-(17-carboxyheptadecanoylamino)ethoxy)ethoxy)acetyl, O=C(O)CCCCCCCCCCCCCCCCC(=O)NCCOCCOCC(=O)*; X3 = (2-(2-(15-carboxypentadecanoylamino)ethoxy)ethoxy)acetyl, O=C(O)CCCCCCCCCCCCCCC(=O)NCCOCCOCC(=O)*; X4 = (2-(2-(16-carboxyhexadecanoylamino)ethoxy)ethoxy)acetyl, O=C(O)CCCCCCCCCCCCCCCC(=O)NCCOCCOCC(=O)*; biscarboxymethyl = Lys(biscarboxymethyl) = Nepsilon-bis(carboxymethyl)-L-lysine; biscarboxymethyl(4) = Lys(biscarboxymethyl) = N6-bis(carboxymethyl)-L-lysine; bis(carboxymethyl) = Lys(biscarboxymethyl) = N6-bis(carboxymethyl)-L-lysine; Palmitoyl(16-(5-tetrazolyl)) = O=C(CCCCCCCCCCCCCCCc1nnn[nH]1)*; biscarboxymethyl(3) = Nepsilon-bis(carboxymethyl) on Lys; biscarboxymethyl″ = N6-bis(carboxymethyl) on L-lysine; Lys(CH2CO2H)2 = N[C@@H](CCCCN(CC(=O)O)CC(=O)O)C(=O)O; C18 diacid = O=C(O)CCCCCCCCCCCCCCCCC(=O)*; C17 diacid = O=C(O)CCCCCCCCCCCCCCCC(=O)*; C16 diacid = O=C(O)CCCCCCCCCCCCCCC(=O)*; Hyp = O=C(O)[C@@H]1C[C@@H](O)CN1; NTA = O=C(O)CN(CC(=O)O)CC(=O)*; hCys = N[C@@H](CCS)C(=O)O; Orn = NCCC[C@H](N)C(=O)O; Dab = NCC[C@H](N)C(=O)O; Dap = NC[C@H](N)C(=O)O; AEEA = NCCOCCOCC(=O)O
Key:
MC1 receptor = target: T1, MC1 receptor (UniProt Q01726 1-317, limits assumed); experiment: 125I-NDP-α-MSH displacement, BHK-MC1 membranes (Assay IV);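 also: membrane incubations stopped by filtration, retained radioactivity counted, Ki fitted by nonlinear regression to binding curves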
T1 construct: whole, on cells; also called melanocortin receptor subtype 1; melanocortin receptor 1
T1 sequence (Q01726 whole entry): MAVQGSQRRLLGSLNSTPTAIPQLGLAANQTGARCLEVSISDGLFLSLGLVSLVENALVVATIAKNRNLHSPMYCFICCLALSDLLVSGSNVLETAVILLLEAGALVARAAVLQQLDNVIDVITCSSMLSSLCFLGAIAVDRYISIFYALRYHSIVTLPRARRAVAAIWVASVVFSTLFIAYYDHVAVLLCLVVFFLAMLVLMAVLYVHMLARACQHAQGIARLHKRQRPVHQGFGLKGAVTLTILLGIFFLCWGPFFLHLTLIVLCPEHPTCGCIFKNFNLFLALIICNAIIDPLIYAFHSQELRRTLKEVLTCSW
Protocol: The MC1 receptor binding assay was performed on BHK cell membranes stably expressing the MC1 receptor. […] Test compounds were dissolved in DMSO. […] Alternatively, HSA may be substituted with ovalbumin. The samples were incubated at 30° C. for 90 min. in Costar round-bottom microtiter plates. Incubation was terminated by filtration on a Packard harvester filtermate. […] The filters were washed with ice-cold 0.9% NaCl 8-10 times. […] The plates were counted in a Topcounter (1 min/well).
(§1) The data were analysed by non-linear regression analysis of binding curves, using the Windows™ program GraphPad™ Prism (GraphPad Software, USA).

human MC4 receptor = target: T2, human MC4 receptor (human, UniProt P32245 1-332); experiment: 125I-NDP-α-MSH displacement, BHK-human MC4 membranes (Assay V);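 also: Filter-retained radioactivity read by gamma counting, with affinity obtained through non-linear regression fitting of the binding curves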
T2 construct: whole, on cells; Assayed as membranes of BHK cells stably expressing the receptor; also called melanocortin receptor subtype 4; melanocortin receptor 4
T2 sequence (P32245 whole entry): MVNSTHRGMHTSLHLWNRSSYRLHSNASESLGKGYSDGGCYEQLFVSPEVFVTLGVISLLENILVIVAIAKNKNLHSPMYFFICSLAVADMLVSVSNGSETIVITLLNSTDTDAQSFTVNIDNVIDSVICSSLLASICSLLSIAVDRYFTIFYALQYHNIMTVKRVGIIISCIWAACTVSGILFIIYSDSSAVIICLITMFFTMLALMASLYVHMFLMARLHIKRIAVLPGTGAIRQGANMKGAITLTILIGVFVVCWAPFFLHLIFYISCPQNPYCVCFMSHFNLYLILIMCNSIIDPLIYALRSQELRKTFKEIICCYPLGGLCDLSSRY
Protocol: The membranes were prepared from frozen or fresh cells that were homogenized in 20 mM HEPES pH 7.1, 5 mM MgCl₂ and 1 mg/ml bacitracin and centrifuged at 15000 rpm at 4° C., 10 min in a Sorvall RC 5B plus, SS-34 rotor. The supernatant was discarded, and the pellets were re-suspended in buffer, homogenized and centrifuged two more times. The final pellets were resuspended in the buffer mentioned above, and the protein concentration was measured and adjusted with buffer to 14 to 17 mg/ml and the membrane preparation were kept at −80° C. until assay. The assay was run directly on a dilution of this cell membrane suspension, without any further preparation. The BHK cell membranes are kept at −80° C. until assay, and the assay is run directly on a dilution of this cell membrane suspension, without further preparation. The suspension is diluted to give maximally 10% specific binding, i.e. to approx. 50-100 fold dilution. […] Test compounds were dissolved in DMSO and diluted in binding buffer. Radiolabelled ligand and membranes were diluted in binding buffer. The incubation was stopped by dilution with 2×100 μl ice-cold 0.9% NaCl. The radioactivity retained on the filters was counted using a Cobra II auto gamma counter.
as §1

| Binder | Ki (MC1 receptor) | Ki (human MC4 receptor) |
| --- | --- | --- |
| Ac-CEH[dF]RWGCPPKEEK([AEEA-C16 diacid])-NH2 (disulfide 1-8; SMILES CC(=O)N[C@H]1CSSC[C@@H](C(=O)N2CCC[C@H]2C(=O)N2CCC[C@H]2C(=O)N[C@@H](CCCCN)C(=O)N[C@@H](CCC(=O)O)C(=O)N[C@@H](CCC(=O)O)C(=O)N[C@@H](CCCCNC(=O)COCCOCCNC(=O)CCCCCCCCCCCCCCC(=O)O)C(N)=O)NC(=O)CNC(=O)[C@H](Cc2c[nH]c3ccccc23)NC(=O)[C@H](CCCNC(=N)N)NC(=O)[C@@H](Cc2ccccc2)NC(=O)[C@H](Cc2c[nH]cn2)NC(=O)[C@H](CCC(=O)O)NC1=O) | 7.22 µM | 6.2 nM |
| Ac-EH[dF]RWK[Hyp][Hyp]RD[Lys(CH2CO2H)2]K([AEEA-Palmitoyl(16-(5-tetrazolyl))])-NH2 (lactam 1-6; SMILES CC(=O)N[C@H]1CCC(=O)NCCCC[C@@H](C(=O)N2C[C@H](O)C[C@H]2C(=O)N2C[C@H](O)C[C@H]2C(=O)N[C@@H](CCCNC(=N)N)C(=O)N[C@@H](CC(=O)O)C(=O)N[C@@H](CCCCN(CC(=O)O)CC(=O)O)C(=O)N[C@@H](CCCCNC(=O)COCCOCCNC(=O)CCCCCCCCCCCCCCCc2nnn[nH]2)C(N)=O)NC(=O)[C@H](Cc2c[nH]c3ccccc23)NC(=O)[C@H](CCCNC(=N)N)NC(=O)[C@@H](Cc2ccccc2)NC(=O)[C@H](Cc2c[nH]cn2)NC1=O) | – | 21 nM |
| Ac-[Orn]H[dF]RWDPPREK(biscarboxymethyl)K(X2)-NH2 (lactam 1-6) | 2.77 µM | 0.33 nM |
| Ac-[Dap]H[dF]RWDPPRDK(NTA)K([AEEA-Palmitoyl(16-(5-tetrazolyl))])-NH2 (lactam 1-6; SMILES CC(=O)N[C@H]1CNC(=O)C[C@@H](C(=O)N2CCC[C@H]2C(=O)N2CCC[C@H]2C(=O)N[C@@H](CCCNC(=N)N)C(=O)N[C@@H](CC(=O)O)C(=O)N[C@@H](CCCCNC(=O)CN(CC(=O)O)CC(=O)O)C(=O)N[C@@H](CCCCNC(=O)COCCOCCNC(=O)CCCCCCCCCCCCCCCc2nnn[nH]2)C(N)=O)NC(=O)[C@H](Cc2c[nH]c3ccccc23)NC(=O)[C@H](CCCNC(=N)N)NC(=O)[C@@H](Cc2ccccc2)NC(=O)[C@H](Cc2c[nH]cn2)NC1=O) | 5.55 µM | 8.95 nM |
| Ac-[Orn]H[dF]RWDPPHEK(biscarboxymethyl)K(X4)-NH2 (lactam 1-6) | 4.83 µM | 1.05 nM |
| Ac-[Dab]H[dF]RWDPPRDK(biscarboxymethyl(3))K([AEEA-Palmitoyl(16-(5-tetrazolyl))])-NH2 (lactam 1-6) | 5.74 µM | 31 nM |
| Ac-[Orn]H[dF]RWEPPRDK(bis(carboxymethyl))K([AEEA-Palmitoyl(16-(5-tetrazolyl))])-NH2 (lactam 1-6) | 0.433 µM | 3.53 nM |
| Ac-[hCys]H[dF]RWCSPHEK(bis(carboxymethyl))K([AEEA-C18 diacid])-NH2 (disulfide 1-6) | 0.442 µM | 0.55 nM |
| Ac-[hCys]H[dF]RWCSPKEK(bis(carboxymethyl))K([AEEA-C16 diacid])-NH2 (disulfide 1-6) | 0.169 µM | 3.43 nM |
| Ac-[hCys]S[dF]RWCPPKEK(biscarboxymethyl″)K(X2)-NH2 (disulfide 1-6) | 2.06 µM | 10 nM |
| Ac-[Dap]H[dF]RWDPPRDK(biscarboxymethyl(3))K([AEEA-Palmitoyl(16-(5-tetrazolyl))])-NH2 (lactam 1-6) | 1.83 µM | 5.16 nM |
| Ac-[Dap]H[dF]RWEPPRDK(biscarboxymethyl(3))K([AEEA-Palmitoyl(16-(5-tetrazolyl))])-NH2 (lactam 1-6) | 3.85 µM | 0.7 nM |
| Ac-[Orn]H[dF]RWDPPHEK(biscarboxymethyl)K(X3)-NH2 (lactam 1-6) | 8.6 µM | 3.4 nM |
| Ac-[Orn]H[dF]RWDPPRDK(biscarboxymethyl)K(X2)-NH2 (lactam 1-6) | 2.34 µM | 0.85 nM |
| Ac-[Orn]H[dF]RWDPPHEK(biscarboxymethyl)K(X6)-NH2 (lactam 1-6) | 7.37 µM | 1.8 nM |
| Ac-KH[dF]RWDPPHS[Lys(CH2CO2H)2]SSEK([AEEA-C17 diacid])-NH2 (lactam 1-6; SMILES CC(=O)N[C@H]1CCCCNC(=O)C[C@@H](C(=O)N2CCC[C@H]2C(=O)N2CCC[C@H]2C(=O)N[C@@H](Cc2c[nH]cn2)C(=O)N[C@@H](CO)C(=O)N[C@@H](CCCCN(CC(=O)O)CC(=O)O)C(=O)N[C@@H](CO)C(=O)N[C@@H](CO)C(=O)N[C@@H](CCC(=O)O)C(=O)N[C@@H](CCCCNC(=O)COCCOCCNC(=O)CCCCCCCCCCCCCCCC(=O)O)C(N)=O)NC(=O)[C@H](Cc2c[nH]c3ccccc23)NC(=O)[C@H](CCCNC(=N)N)NC(=O)[C@@H](Cc2ccccc2)NC(=O)[C@H](Cc2c[nH]cn2)NC1=O) | – | 14 nM |
| Ac-DH[dF]RW[Dab]PPRDK(biscarboxymethyl(4))K(X2)-NH2 (lactam 1-6) | 5.15 µM | 1.33 nM |
| Ac-DH[dF]RW[Dap]PPRDK(NTA)K(X2)-NH2 (lactam 1-6; SMILES CC(=O)N[C@H]1CC(=O)NC[C@@H](C(=O)N2CCC[C@H]2C(=O)N2CCC[C@H]2C(=O)N[C@@H](CCCNC(=N)N)C(=O)N[C@@H](CC(=O)O)C(=O)N[C@@H](CCCCNC(=O)CN(CC(=O)O)CC(=O)O)C(=O)N[C@@H](CCCCNC(=O)COCCOCCNC(=O)CCCCCCCCCCCCCCCc2nn[nH]n2)C(N)=O)NC(=O)[C@H](Cc2c[nH]c3ccccc23)NC(=O)[C@H](CCCNC(=N)N)NC(=O)[C@@H](Cc2ccccc2)NC(=O)[C@H](Cc2c[nH]cn2)NC1=O) | 7.98 µM | 107 nM |
| Ac-DH[dF]RW[Orn]PPRDK(biscarboxymethyl(3))K([AEEA-Palmitoyl(16-(5-tetrazolyl))])-NH2 (lactam 1-6) | 2.54 µM | 33 nM |
| Ac-EH[dF]RW[Orn]PPHDK(biscarboxymethyl)K(X2)-NH2 (lactam 1-6) | 5.17 µM | 3.58 nM |
| Ac-EH[dF]RW[Orn][Hyp][Hyp]RDK(biscarboxymethyl)K(X2)-NH2 (lactam 1-6) | 7.23 µM | 3.25 nM |
| Ac-[hCys]H[dF]RWCPPKE[Dap](NTA)K([AEEA-Palmitoyl(16-(5-tetrazolyl))])-NH2 (disulfide 1-6; SMILES CC(=O)N[C@H]1CCSSC[C@@H](C(=O)N2CCC[C@H]2C(=O)N2CCC[C@H]2C(=O)N[C@@H](CCCCN)C(=O)N[C@@H](CCC(=O)O)C(=O)N[C@@H](CNC(=O)CN(CC(=O)O)CC(=O)O)C(=O)N[C@@H](CCCCNC(=O)COCCOCCNC(=O)CCCCCCCCCCCCCCCc2nnn[nH]2)C(N)=O)NC(=O)[C@H](Cc2c[nH]c3ccccc23)NC(=O)[C@H](CCCNC(=N)N)NC(=O)[C@@H](Cc2ccccc2)NC(=O)[C@H](Cc2c[nH]cn2)NC1=O) | 0.177 µM | 0.6 nM |
| Ac-[Orn]H[dF]RWDPSSSK(biscarboxymethyl)SSK(X3)-NH2 (lactam 1-6) | 3.89 µM | 1.2 nM |
| Ac-[hCys]H[dF]RWCPPKD[Dap](NTA)K([AEEA-Palmitoyl(16-(5-tetrazolyl))])-NH2 (disulfide 1-6; SMILES CC(=O)N[C@H]1CCSSC[C@@H](C(=O)N2CCC[C@H]2C(=O)N2CCC[C@H]2C(=O)N[C@@H](CCCCN)C(=O)N[C@@H](CC(=O)O)C(=O)N[C@@H](CNC(=O)CN(CC(=O)O)CC(=O)O)C(=O)N[C@@H](CCCCNC(=O)COCCOCCNC(=O)CCCCCCCCCCCCCCCc2nnn[nH]2)C(N)=O)NC(=O)[C@H](Cc2c[nH]c3ccccc23)NC(=O)[C@H](CCCNC(=N)N)NC(=O)[C@@H](Cc2ccccc2)NC(=O)[C@H](Cc2c[nH]cn2)NC1=O) | 7.54 µM | 0.64 nM |
| Ac-EH[dF]RW[Orn]PPRDK(biscarboxymethyl)K(X2)-NH2 (lactam 1-6) | 5.24 µM | 1.42 nM |
| Ac-[Orn]H[dF]RWDPPREK(biscarboxymethyl)SS-X5 (lactam 1-6) | 2.5 µM | 0.93 nM |
